What was measured:
[1] = biological target: T1, natural Bet v 1 (Betula verrucosa (Betula pendula), UniProt P15494 2-160); test: SPR Biacore 4000, mAb captured on anti-human Fc, 37C;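 also: kinetic rate constants from SPR sensorgrams fitted to a 1:1 model with mass transport limitation, HBS-ET buffer pH 7.4, KD and t½ derived from the rate constants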
T1 construct: Bought natural protein; also called nBet v 1
T1 chain: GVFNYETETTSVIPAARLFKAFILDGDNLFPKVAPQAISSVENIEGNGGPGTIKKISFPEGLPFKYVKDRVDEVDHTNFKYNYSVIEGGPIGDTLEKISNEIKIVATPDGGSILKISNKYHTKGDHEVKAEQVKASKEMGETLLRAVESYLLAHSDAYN
Procedure: (§1) Equilibrium dissociation constants (KD) for natural Bet v 1 binding to purified anti-Bet v 1 monoclonal antibodies were determined using a real-time surface plasmon resonance biosensor (SPR-Biacore) on a Biacore 4000 instrument. All binding studies were performed in 10 mM HEPES, 150 mM NaCl, 3 mM EDTA, and 0.05% v/v surfactant Tween-20, pH 7.4 (HBS-ET) running buffer at 25° C. and 37° C. […] Association (kₐ) and dissociation (kd) rate constants were determined by fitting the real-time binding sensorgrams to a 1:1 binding model with mass transport limitation using Scrubber 2.0c curve-fitting software. Binding dissociation equilibrium constants (KD) and dissociative half-lives (t½) were calculated from the kinetic rate constants as:

[2] = biological target: T1, natural Bet v 1; test: SPR Biacore 4000, mAb captured on anti-human Fc, 25C;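 also: purified anti-Bet v 1 mAbs probed with natural Bet v 1 in HBS-ET buffer (HEPES, NaCl, EDTA, Tween-20) at pH 7.4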
Procedure: as §1

B1: H4H16950P (antibody, human IgG4, V domains shown)
VH: QVQLVQSGAEVKKPGASVKVSCKTSGYTFTNYGITWVRQAPGQGLEWMGWISAYNGNTNYAQNVQGRVTMTTDTSTSTAYMEVRSLRSDDTAVYYCARRSSMLHFQHWGQGTLVTVSS
VL: DIVMTQSPDSLAVSLGERATINCKSSQHVLYDSSNENYLAWFQQKPGQPPKLLIYWASTRESGVPDRFSGSGSGTDFTLTISSLQAEDVAVYYCQQYSSAPYTFGQGTKLEIK
100 nM natural Bet v 1 Bound (RU) [1]: 76 RU
Kd [1]: 8.57 nM
koff [1]: 0.00121 s⁻¹
kon [1]: 141000 M⁻¹ s⁻¹
t½ [1]: 10 min
100 nM natural Bet v 1 Bound (RU) [2]: 58 RU
Kd [2]: 5.23 nM
koff [2]: 0.000503 s⁻¹
kon [2]: 96100 M⁻¹ s⁻¹
t½ [2]: 23 min

B2: H4H16987P (antibody, human IgG4 S228P, kappa, V domains shown)
VH: EVQLVESGGGLVQPGGSLRLSCAASGFTVSSNSMSWVRQAPGEGLEWVSVIFSGGITYYSDSVKGRFTISRHNSKNTLYLQMNSLRTEDTAVYYCARHSNWNFDAFDIWGQGTMVTVSS
VL: DIQMTQSPSSLSASVGDRVTITCRASQSFDTYLNWYQQKPGKAPNLLIYATSSLQSGVPSRFSGSGSGTDFTLTISSLQPEDFGTYYCQQSYSIPYTFGQGTKLEIKR
notes: Human IgG4; also called MAB4
100 nM natural Bet v 1 Bound (RU) [1]: 74 RU
Kd [1]: 9.16 nM
koff [1]: 0.00477 s⁻¹
kon [1]: 520000 M⁻¹ s⁻¹
t½ [1]: 2.4 min
100 nM natural Bet v 1 Bound (RU) [2]: 61 RU
Kd [2]: 2.77 nM
koff [2]: 0.00114 s⁻¹
kon [2]: 410000 M⁻¹ s⁻¹
t½ [2]: 10 min

B3: H4H16991P (antibody, human IgG4, V domains shown)
VH: QVQLVQSGAEVRKPGASVKVSCKASGYTFTGYYLHWVRQAPGQGLEWMGLINPNTGGTNFAQKFQGRVTMTRDSSISAAYMELSRLRSDDTAVYYCARQHWNRYFDNWGQGTLVTVSS
VL: DIQMTQSPSTLSASVGDRVTITCRASQSVGNWLAWYQQKPGKAPKLLIQEASSIESGVPSRFSGSGSGTEFTLIVSSLQPDDFATYYCQQYNSYSWTFGHGTKVEIK
100 nM natural Bet v 1 Bound (RU) [1]: 66 RU
Kd [1]: 2.16 nM
koff [1]: 0.00108 s⁻¹
kon [1]: 500000 M⁻¹ s⁻¹
t½ [1]: 11 min
100 nM natural Bet v 1 Bound (RU) [2]: 57 RU
Kd [2]: 1.06 nM
koff [2]: 0.000312 s⁻¹
kon [2]: 295000 M⁻¹ s⁻¹
t½ [2]: 37 min

B4: H4H17027P (antibody, human IgG4, V domains shown)
VH: EVQLVESGGGLVQPGGSLRLSCAASGFTFRNYAMHWVRQAPGEGLEWVAAIYRNSDSIDYADSVKGRFTISRDNAKNSLYLQMNSLKTEDTALYYCAKDEGFLEYFDSWGQGTLVTVSS
VL: EIVLTQSPGTLSLSPGERASLSCRASQSVSSSFLAWYQQKPGQAPRLLIYGVSSRFIGIPDRFSGGGSGTDFTLTITRLEPEDFAVYYCQQYGRSPWTFGQGTKVEIK
100 nM natural Bet v 1 Bound (RU) [1]: 67 RU
Kd [1]: 9.48 nM
koff [1]: 0.00093 s⁻¹
kon [1]: 98100 M⁻¹ s⁻¹
t½ [1]: 12 min
100 nM natural Bet v 1 Bound (RU) [2]: 48 RU
Kd [2]: 4.32 nM
koff [2]: 0.00027 s⁻¹
kon [2]: 62400 M⁻¹ s⁻¹
t½ [2]: 43 min

B5: H4H17015P (antibody, human IgG4, V domains shown)
VH: QVQLQESGPGLVKPSQTLSLTCTVSGGSISSADHYWSWIRQQPGKGLEWIGYISYRGTTYYNPTLESRVSISVDTFKNQFSLMLHSVTVADTAVYYCAKVLQGLVRFRDYGFDVWGQGTTVTVSS
VL: DIQLTQSPPFLSASVGDRVTITCWASQDISSYLAWYQQNPGKSPKLLIYDAFTLHTGVPSRFSGSGSGTEFTLTISSLQPEDFATFYCQHLYSFPFTFGPGTKVDIK
100 nM natural Bet v 1 Bound (RU) [1]: 84 RU
Kd [1]: 2.7 nM
koff [1]: 0.000792 s⁻¹
kon [1]: 293000 M⁻¹ s⁻¹
t½ [1]: 15 min
100 nM natural Bet v 1 Bound (RU) [2]: 68 RU
Kd [2]: 1.34 nM
koff [2]: 0.000246 s⁻¹
kon [2]: 184000 M⁻¹ s⁻¹
t½ [2]: 47 min

B6: H4H16979P (antibody, human IgG4, V domains shown)
VH: QVQLVQSGAEVKKPGASVKVSCKASGYTFIAYYLHWVRQAPGQGLEWMGLLNPYTGGSYYTQKFQGRVTMTRDTSIDTAYMELNSLRSDDTAIYYCARDKRSYYIPYAFEIWGQGTMVTVSS
VL: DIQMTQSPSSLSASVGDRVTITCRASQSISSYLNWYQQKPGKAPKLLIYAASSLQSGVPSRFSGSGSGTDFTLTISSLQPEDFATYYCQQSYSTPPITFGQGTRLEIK
100 nM natural Bet v 1 Bound (RU) [1]: 52 RU
Kd [1]: 1.8 nM
koff [1]: 0.000616 s⁻¹
kon [1]: 342000 M⁻¹ s⁻¹
t½ [1]: 19 min
100 nM natural Bet v 1 Bound (RU) [2]: 41 RU
Kd [2]: 1.21 nM
koff [2]: 0.000278 s⁻¹
kon [2]: 230000 M⁻¹ s⁻¹
t½ [2]: 42 min

B7: H4H16946P (antibody, human IgG4, V domains shown)
VH: EVQLVESGGGLVQPGGSLRLSCVASGFTFSNYDMNWVRQAPGEGLEWISYISYSDHNIYYIDSVKGRFTISRDNAKNSLYLQMNSLRAEDTAIYYCAREALASSSFDYWGQGTLVTVSS
VL: EIVMTQSPATLSVSPGERVTLSCRASQSVSGNLAWYQQKPGQAPRLLIYSASTGATGVPARFSGSGSGTEFTLTISSLQSEDFALYYCQQYNKWPRTIGQGTKVEIK
100 nM natural Bet v 1 Bound (RU) [1]: 93 RU
Kd [1]: 2.08 nM
koff [1]: 0.000601 s⁻¹
kon [1]: 289000 M⁻¹ s⁻¹
t½ [1]: 19 min
100 nM natural Bet v 1 Bound (RU) [2]: 74 RU
Kd [2]: 0.982 nM
koff [2]: 0.000201 s⁻¹
kon [2]: 205000 M⁻¹ s⁻¹
t½ [2]: 58 min

B8: H4H17001P (antibody, human IgG4, V domains shown)
VH: QVQLVESGGGLVKPGGSLRLSCAASGFTFSDYYMNWIRQAPGKGLEWISLISSSGSAIYYSDSVKGRFTISRDNARKSLYLQVNSLRAEDTAVYYCARDRGEWALGAYYYGLDVWGQGTTVTVSS
VL: DIVMTQSPLSLPVTPGEPASISCRSSQSLLHSDGYNYLDWYLQKSGQSPQLLIYLGSNRASGVPDRFSGSGSGTDFTLKISRMEAEDVGVYYCMQALQTPYTFGQGTKLEIK
100 nM natural Bet v 1 Bound (RU) [1]: 87 RU
Kd [1]: 2.52 nM
koff [1]: 0.00122 s⁻¹
kon [1]: 485000 M⁻¹ s⁻¹
t½ [1]: 9.5 min
100 nM natural Bet v 1 Bound (RU) [2]: 71 RU
Kd [2]: 1 nM
koff [2]: 0.000329 s⁻¹
kon [2]: 329000 M⁻¹ s⁻¹
t½ [2]: 35 min

B9: H4H16967P (antibody, human IgG4, V domains shown)
VH: QVQLVESGGGVVQPGRSLRLSCAASGFTFSSYGMHWFRQAPGKGLEWVGVIWSDGSDKKYADSVKGRFTISRDNSKNTLYLLMNSLRDDDTAVYHCAREGGFLYSSSSHFDYWGQGTLVTVSS
VL: AIQMTQSPSSLSASVGDRVTITCRTSQGIRNDLGWYQQKPGKAPKLLIFAASSLQSGVPSRFSGSGSGTDFTLTISSLQPEDFAIYYCLQDYKYPFTFGGGTKVEIK
100 nM natural Bet v 1 Bound (RU) [1]: 45 RU
Kd [1]: 14.3 nM
koff [1]: 0.000719 s⁻¹
kon [1]: 50400 M⁻¹ s⁻¹
t½ [1]: 16 min
100 nM natural Bet v 1 Bound (RU) [2]: 27 RU
Kd [2]: 3.98 nM
koff [2]: 0.000149 s⁻¹
kon [2]: 37600 M⁻¹ s⁻¹
t½ [2]: 77 min

B10: H4H16960P (antibody, human IgG4, V domains shown)
VH: QLQLQESGPGLVRPSETLSLTCTVSGGSISSSNYWWGWIRQPPGKGLEWIGSIYYSGITYYNPSLKSRVTISADTSKDQFSLKLRSVTAADTAVYYCAKLEWLRLDFWGQGTTVTVSS
VL: DIQMTQSPSSVSASVGDRVTITCRASQGISSWLVWYQQKPGKVPKLLIYAASSLQSGVPLRFSGSGSGTDFTLTISSLQPEDFATYYCQQAKSFPLTFGQGTRLEIK
100 nM natural Bet v 1 Bound (RU) [1]: 65 RU
Kd [1]: 2.54 nM
koff [1]: 0.00168 s⁻¹
kon [1]: 662000 M⁻¹ s⁻¹
t½ [1]: 6.8 min
100 nM natural Bet v 1 Bound (RU) [2]: 57 RU
Kd [2]: 1.64 nM
koff [2]: 0.00069 s⁻¹
kon [2]: 422000 M⁻¹ s⁻¹
t½ [2]: 17 min

B11: H4H16943P (antibody, human IgG4, V domains shown)
VH: EVQLVESGGGLVQPGGSLRLSCTASGFMSSMYWMSWVRQAPGKGLEWVSNIKQDGTEKNYVESVKGRFTISRDNAKNSLYLQINSLRGEDTAVYYCARDLYSSSSGYYYYGLDVWGQGTTVTVSS
VL: DIVMTQSPLSLPVTPGEPASISCRSSQSLLHSNKYNYLDWYLQKPGQSPQLLIYLSSNRASGVPDRFSGSGSGTEFTLKISRVEAEDVGIYYCMQALHTPLTFGGGTKVEIK
notes: Fully human antibody
100 nM natural Bet v 1 Bound (RU) [1]: 88 RU
Kd [1]: 4.89 nM
koff [1]: 0.00127 s⁻¹
kon [1]: 260000 M⁻¹ s⁻¹
t½ [1]: 9.1 min
100 nM natural Bet v 1 Bound (RU) [2]: 71 RU
Kd [2]: 1.4 nM
koff [2]: 0.00023 s⁻¹
kon [2]: 164000 M⁻¹ s⁻¹
t½ [2]: 50 min

B12: H4H16971P (antibody, human IgG4, V domains shown)
VH: QVQLVESGGGVVQPGRSLRLSCAASGFTFSSYGLHWVRQAPGKGLEWVAVISDDGSYKFYADSMKGRFTISRDNSKNTLYLQMNSLRAEDTAVYYCAKDRGRSGWYYFDYWGQGTLVTVSS
VL: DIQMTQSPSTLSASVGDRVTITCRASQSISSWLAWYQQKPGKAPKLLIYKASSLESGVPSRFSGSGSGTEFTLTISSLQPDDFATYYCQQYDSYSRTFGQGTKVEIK
100 nM natural Bet v 1 Bound (RU) [1]: 66 RU
Kd [1]: 6.93 nM
koff [1]: 0.00244 s⁻¹
kon [1]: 352000 M⁻¹ s⁻¹
t½ [1]: 4.7 min
100 nM natural Bet v 1 Bound (RU) [2]: 57 RU
Kd [2]: 3.26 nM
koff [2]: 0.000781 s⁻¹
kon [2]: 240000 M⁻¹ s⁻¹
t½ [2]: 15 min

— patent US20180346555A1 (Regeneron, published 2018)
